In publication PMC11747444:

Biological target: recombinant strep-tagged apo-APC/C, dephosphorylated (UniProt Q9H1A4)
Sequence of UniProt Q9H1A4 (Q9H1A4 whole entry, looked up): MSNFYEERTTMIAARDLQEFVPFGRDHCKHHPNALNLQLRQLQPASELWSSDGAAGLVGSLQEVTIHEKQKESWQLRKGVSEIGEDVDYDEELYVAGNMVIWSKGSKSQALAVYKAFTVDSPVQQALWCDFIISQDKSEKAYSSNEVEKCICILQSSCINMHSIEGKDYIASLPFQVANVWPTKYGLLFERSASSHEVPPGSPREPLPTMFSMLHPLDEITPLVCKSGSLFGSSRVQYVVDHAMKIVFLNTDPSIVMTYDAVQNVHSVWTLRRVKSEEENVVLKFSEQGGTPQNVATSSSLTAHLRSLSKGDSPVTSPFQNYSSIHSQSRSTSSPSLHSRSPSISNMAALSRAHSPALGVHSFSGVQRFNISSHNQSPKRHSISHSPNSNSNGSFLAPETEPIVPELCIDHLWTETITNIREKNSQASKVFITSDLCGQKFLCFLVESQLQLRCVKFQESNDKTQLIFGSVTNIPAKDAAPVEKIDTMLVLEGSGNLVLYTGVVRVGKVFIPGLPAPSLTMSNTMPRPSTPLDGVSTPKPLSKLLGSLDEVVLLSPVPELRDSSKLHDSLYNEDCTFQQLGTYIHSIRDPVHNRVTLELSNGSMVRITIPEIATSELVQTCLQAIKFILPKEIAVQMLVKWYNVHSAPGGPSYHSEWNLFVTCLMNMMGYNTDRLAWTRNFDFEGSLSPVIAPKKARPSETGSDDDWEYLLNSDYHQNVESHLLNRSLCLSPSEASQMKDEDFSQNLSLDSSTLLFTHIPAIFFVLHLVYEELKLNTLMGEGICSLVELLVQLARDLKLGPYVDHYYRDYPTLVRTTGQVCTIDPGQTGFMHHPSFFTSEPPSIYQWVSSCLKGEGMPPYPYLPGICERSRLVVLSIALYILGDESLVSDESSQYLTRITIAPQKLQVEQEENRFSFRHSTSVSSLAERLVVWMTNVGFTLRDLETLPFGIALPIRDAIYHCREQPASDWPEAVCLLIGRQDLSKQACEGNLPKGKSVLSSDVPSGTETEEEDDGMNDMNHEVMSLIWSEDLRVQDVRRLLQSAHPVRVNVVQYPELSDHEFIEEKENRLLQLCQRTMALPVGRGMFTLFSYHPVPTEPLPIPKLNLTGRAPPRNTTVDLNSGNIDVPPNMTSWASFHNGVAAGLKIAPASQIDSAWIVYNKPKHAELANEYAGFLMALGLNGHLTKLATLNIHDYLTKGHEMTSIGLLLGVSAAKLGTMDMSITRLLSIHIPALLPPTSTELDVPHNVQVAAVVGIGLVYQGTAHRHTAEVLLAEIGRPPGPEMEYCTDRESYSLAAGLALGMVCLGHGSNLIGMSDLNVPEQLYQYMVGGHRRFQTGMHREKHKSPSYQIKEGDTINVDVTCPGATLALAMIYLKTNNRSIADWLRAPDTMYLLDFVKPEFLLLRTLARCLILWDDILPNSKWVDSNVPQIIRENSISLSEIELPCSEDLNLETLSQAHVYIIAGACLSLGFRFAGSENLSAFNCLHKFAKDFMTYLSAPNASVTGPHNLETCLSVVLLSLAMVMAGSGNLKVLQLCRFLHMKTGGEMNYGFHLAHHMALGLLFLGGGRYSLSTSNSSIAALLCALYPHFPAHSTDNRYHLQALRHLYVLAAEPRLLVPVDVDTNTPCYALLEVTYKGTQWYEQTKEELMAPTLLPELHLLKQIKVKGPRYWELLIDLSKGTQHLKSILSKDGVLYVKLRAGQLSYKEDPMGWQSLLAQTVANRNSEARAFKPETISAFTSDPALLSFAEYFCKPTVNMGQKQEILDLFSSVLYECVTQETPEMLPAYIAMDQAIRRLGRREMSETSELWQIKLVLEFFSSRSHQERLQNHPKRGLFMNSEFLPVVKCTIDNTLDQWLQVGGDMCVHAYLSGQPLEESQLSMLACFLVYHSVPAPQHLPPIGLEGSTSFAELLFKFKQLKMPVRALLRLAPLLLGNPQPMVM

Substance: CDK1/CKS1/cyclin B1^wt complex (CCC^wt) (from UniProt P06493 1-297; P61024 1-79; P14635 1-433)
- phosphosites on dephosphorylated recombinant APC/C after in vitro phosphorylation, by mass spectrometry: 28 phosphosites
